Results on 30 molecules are retold here after patent US6512097.

Assay in all cases: SPR BIAcore
On the technique in general: In SPR one partner is held on a chip, and binding of the other changes the refractive index at the surface.

Assay [1] deals with T1, c-erbB-2 ECD with a Ser-Gly-His6 C-terminal fusion (UniProt P04626 23-652).
T1 construct: extracellular domain; Expressed from CHO cells, IMAC purified; coupled to a CM5 chip, coated on plates, or biotinylated with NHS-LC-biotin; also called c-erbB-2 extracellular domain; biotinylated c-erbB-2 ECD

The target of assay [2] is T1, c-erbB-2 ECD with a Ser-Gly-His6 …. The source holds these as a separate data set.
The target is the same in assay [3]. The protocol:
All assays were performed in triplicate. Briefly, […] of radioiodinated sFv was added to 5×10^6 SK-OV cells in the presence of increasing concentrations of unlabeled sFv from the same preparation. After a 30 minute incubation at 20° C., the samples were washed with PBS at 4° C. and centrifuged at 500 g. The amount of labeled sFv bound to the cells was determined by counting the pellets in a gamma counter and the K_a, and K_d were calculated using the EBDA program (V 2.0, G. A. McPherson, 1983). The K_d of all the other isolated sFv were determined using surface plasmon resonance in a BIAcore (Pharmacia). In a BIAcore flow cell, approximately 1400 resonance units (RU) of c-erbB-2 ECD (25 μg/ml in 10 mM sodium acetate, pH 4.5) was coupled to a CM5 sensor chip (Johnsson et al. (1991), supra). Association and dissociation-rates were measured under continuous flow of […] using a concentration range from 50 to 800 nM. Rate constant $kon$ was determined from a plot of (1(dR/dt))/t vs concentration (Karlsson et al. (1991), supra). Rate constant $Hoff$ was determined from the dissociation part of the sensorgram at the highest concentration of sFv analyzed.
Dashes indicate sequence identity. Mutations arising from PCR error and located outside V_H CDR3 are listed under the heading other mutations. F = frequency of isolated scFv. *$koff$ determined from unpurified scFv samples. Underline indicates mutated residue.
This is another data set of the same source.

Substitutions are numbered along the chain they refer to. Read-outs that look alike come from different tables or passages of the source.

B1: C6HL3-10 (scFv)
scFv: QVQLLQSGAELKKPGESLKISCKGSGYSFTSYWIAWVRQMPGKGLEYMGLIYPGDSDTKYSPSFQGQVTISVDKSVSTAYLQWSSLKPSDSAVYFCARHDVGYCSSSNCAKWPEYFQHWGQGTLVTVSSGGGGSGGGGSGGGGSQSVLTQPPSVSAAPGQKVTISCSGSSSNIGNNYVSWYQQLPGTAPKLLIYGHTNRPAGVPDRFSGSKSGTSASLAISGFRSEDEADYYCAAWEDPWYGWVFGGGTKLTVLG
notes: label as printed (probably C6ML3-10)
For orientation: Kd means the concentration at which binding is half-saturated. A lower Kd goes with a tighter complex. A word on the koff: it is the first-order rate constant of dissociation. Low readings indicate slow dissociation, high ones fast dissociation. Take B1: in assay [1], the Kd was found to be 2.3 nM and the koff is 0.0014 s⁻¹.

B2: C6ML3-13 (scFv)
scFv: B1 scFv with E237D, D238A, P239T, W240L, Y241W
In assay [1], B2 came in with a Kd of 2.4 nM and a koff of 0.0021 s⁻¹.

B3: C6ML3-15 (scFv)
scFv: B1 scFv with E237D, D238R, W240L, Y241W
notes: also called C6M13-15
In the case of B3, the Kd in assay [1] and in assay [2] was 2.2 nM in each case.

B4: C6ML3-16 (scFv)
scFv: B1 scFv with A235S, E237D, D238Y, P239Y, W240R, Y241S
In assay [2], B4 gave an equilibrium dissociation constant (Kd) of 5 nM and a koff of 0.0017 s⁻¹.

B5: C6ML3-26 (scFv)
scFv: B1 scFv with E237D, P239S, W240R, Y241S
In the case of B5, in assay [2], binding was characterised by a dissociation constant (Kd) of 8.3 nM and the dissociation rate constant (koff) was determined as 0.005 s⁻¹.

B6: C6ML3-1 (scFv)
scFv: B1 scFv with E237D, D238Y, P239S, W240L, Y241W
In assay [1], B6 had an equilibrium dissociation constant (Kd) of 6.7 nM and a koff of 0.002 s⁻¹.

B7: C6ML3-A3 (scFv)
scFv: B1 scFv with N108D, A235S, E237D, D238Y, P239T, W240L, Y241S
With B7, in assay [3], the Kd amounted to 16 nM and the koff amounted to 0.0063 s⁻¹.

B8: C6ML3-14 (scFv)
scFv: B1 scFv with E237D, W240L, Y241W
In assay [1], B8 registered a dissociation constant (Kd) of 1 nM and a dissociation rate constant (koff) of 0.00077 s⁻¹. In assay [2], this molecule gave a Kd of 1.1 nM and a koff of 0.00076 s⁻¹.

B9: C6ML3-25 (scFv)
scFv: B1 scFv with E237D, D238N, P239R, W240H, Y241S
For the molecule B9, in assay [2], binding was characterised by a dissociation constant (Kd) of 7.4 nM and the off-rate (koff) amounted to 0.0044 s⁻¹.

B10: C6ML3-24 (scFv)
scFv: B1 scFv with E237D, D238E, P239Q, W240I, Y241F
As to B10, in assay [2], binding was put at a Kd of 12.4 nM and the koff stood at 0.0079 s⁻¹.

B11: C6ML3-8 (scFv)
scFv: B1 scFv with E237D, D238H, P239L, W240R, Y241W
As to B11, in assay [1], the affinity, expressed as Kd, was 2.6 nM and the off-rate constant (koff) is 0.0017 s⁻¹.

B12: C6ML3-2 (scFv)
scFv: B1 scFv with E237D, D238H, P239S, W240L, Y241S
Turning to B12, in assay [1], the Kd amounted to 2.8 nM and the koff turned out to be 0.002 s⁻¹.

B13: C6MH3-D5 (scFv)
scFv: B1 scFv with Y115W, F116M, H118M, A235S, E237D, D238Y, P239T, W240L, Y241S
notes: C6ML3-9 sFv, VH CDR3 library D mutant
In assay [3], B13 displayed a Kd of 0.38 nM and a koff of 0.00021 s⁻¹.

B14: C6ML3-21 (scFv)
scFv: B1 scFv with E237D, D238Y, P239S, W240Q, Y241S
In assay [2], B14 yielded a Kd of 4.5 nM and a dissociation rate constant (koff) of 0.0022 s⁻¹.

B15: C6ML3-12 (scFv)
scFv: B1 scFv with E237D, D238Y, P239S, W240R, Y241S
notes: also called CML-3-12
In assay [1], B15 yielded a Kd of 1.6 nM and a dissociation rate constant (koff) of 0.00072 s⁻¹. In assay [2], this molecule gave a dissociation constant (Kd) of 1.6 nM and a koff of 0.00072 s⁻¹.

B16: C6ML3-28 (scFv)
scFv: B1 scFv with A235S, E237D, D238Y, P239A, W240L, Y241S
In assay [2], B16 came in with a Kd of 2.5 nM and a koff of 0.0017 s⁻¹.

B17: C6ML3-18 (scFv)
scFv: B1 scFv with A235S, E237D, D238A, P239S, W240L, Y241W
In assay [2], B17 displayed a Kd of 2.4 nM and an off-rate (koff) of 0.00062 s⁻¹.

B18: C6ML3-5 (scFv)
scFv: B1 scFv with E237D, D238Y, P239S, W240L, Y241S
As to B18, the results for the Kd in assay [1] and in assay [2] were 3.2 nM and 3.7 nM, respectively.

B19: C6ML3-6 (scFv)
scFv: B1 scFv with A235S, E237D, D238Y, P239S, W240L, Y241S
Regarding B19, in assay [1], the Kd is 3.2 nM and the dissociation rate constant (koff) is 0.0019 s⁻¹. Further, in assay [2], the Kd was found to be 3.2 nM and the off-rate (koff) was determined as 0.0019 s⁻¹.

B20: C6ML3-17 (scFv)
scFv: B1 scFv with A235S, E237D, D238Y, P239Y, W240R, Y241S
For B20, in assay [2], the Kd stood at 5 nM and the dissociation rate constant (koff) turned out to be 0.0017 s⁻¹.

B21: C6ML3-7 (scFv)
scFv: B1 scFv with E237D, D238Y, P239A, W240V, Y241S
For the molecule B21, in assay [1], the Kd turned out to be 2.6 nM and the off-rate constant (koff) worked out at 0.0017 s⁻¹. Also, in assay [2], the dissociation constant Kd stood at 2.6 nM and the koff came to 0.0017 s⁻¹.

B22: C6MH3-D6 (scFv)
scFv: B1 scFv with Y115W, F116M, Q117Y, H118P, A235S, E237D, D238Y, P239T, W240L, Y241S
notes: as for B13
In assay [3], B22 registered a Kd of 0.35 nM and a koff of 0.00018 s⁻¹.

B23: C6ML3-23 (scFv)
scFv: B1 scFv with A235S, E237D, D238H, P239S, W240L, Y241W
As for B23, the Kd in assay [1] and in assay [2] was 1.5 nM each time. In addition, the koff turned out to be 0.0017 s⁻¹ in assay [1] and 0.001 s⁻¹ in assay [2].

B24: C6ML3-29 (scFv)
scFv: B1 scFv with E237D, D238G, P239T, W240L, Y241W
For B24, the Kd was determined as 2.7 nM in assay [1] and 1.7 nM in assay [2]. The off-rate constant (koff) in assay [1] and in assay [2] was 0.0022 s⁻¹ throughout.

B25: C6ML3-11 (scFv)
scFv: B1 scFv with E237D, D238Y, P239A, W240L, Y241W
In the case of B25, in assay [1], the Kd was 3.6 nM and the dissociation rate constant (koff) was determined as 0.0022 s⁻¹.

B26: C6ML3-19 (scFv)
scFv: B1 scFv with A235S, E237D, D238R, W240L, Y241W
Turning to B26, the equilibrium dissociation constant (Kd) in assay [1] and in assay [2] was 1.5 nM throughout. Besides, the off-rate (koff) in assay [1] and in assay [2] was 0.001 s⁻¹ throughout.

B27: C6ML3-4 (scFv)
scFv: B1 scFv with A235S, D238Y, P239S, W240L, Y241W
Regarding B27, in assay [1], the equilibrium dissociation constant (Kd) was 3.5 nM and the off-rate constant (koff) was 0.0014 s⁻¹.

B28: C6ML3-20 (scFv)
scFv: B1 scFv with D238Q, P239S, W240L, Y241W
In assay [2], B28 came in with a Kd of 3 nM and a koff of 0.0014 s⁻¹.

B29: C6ML3-22 (scFv)
scFv: B1 scFv with E237D, D238A, P239S, W240L, Y241S
In assay [2], B29 displayed a Kd of 8.3 nM and a koff of 0.0036 s⁻¹.

B30: C6ML3-3 (scFv)
scFv: B1 scFv with A235T, E237D, D238Y, P239A, W240L, Y241S
For B30, in assay [1], binding was characterised by a dissociation constant (Kd) of 4.3 nM and the dissociation rate constant (koff) turned out to be 0.002 s⁻¹.
